Measurements reported in PMC8484680.

Tests used:
[1] = molecular target: PsFucS1, fucoidan active sulfatase (subfamily S1_13) from Pseudoalteromonas sp. MB47 (Pseudoalteromonas sp. MB47); assay: SEC; analytical SEC, HiLoad 16/600 Superdex 200 pg, room temperature, 200 µl of His-tagged PsFucS1 at 6 mg/ml, 50 mM Tris-HCl pH 8.0, 100 mM NaCl; calibrated with standards of 13.7-440 kDa
[2] = molecular target: PsFucS1, fucoidan active sulfatase (subfamily S1_13) from Pseudoalteromonas sp. MB47 (Pseudoalteromonas sp. MB47); assay: crystal structure; X-ray, 2.50 Å, space group P212121, six molecules in the asymmetric unit; crystals grown at 20 °C in 0.1 M sodium acetate pH 4.6, 0.1 M NaCl, 20% PEG 3350; interfaces analysed with PISA

PsFucS1, fucoidan active sulfatase (subfamily S1_13) from Pseudoalteromonas sp. MB47 (enzyme)
stoichiometry N [1]: 6 | stoichiometry N [2]: 6
